These results are taken from patent US20110166072A1.

In the first assay the target is platelet glycoprotein αIIbβ3 (on human platelets) (human) (UniProt P08514). The experiment in a line: cell-based or functional assay.
For the substance “HSA-RD (human serum albumin-RD fusion protein) (from UniProt P30403 408-475)”, the Platelet aggregation IC50 amounted to 0.438 µM.
With “PRGEMP (from UniProt P30403 408-475) (ligand)”, the Platelet aggregation IC50 came out at 4.91 µM.
Still for that read-out and setting: for “PRPDDL (from UniProt P30403 408-475) (ligand)” the value was 3.53 µM; for “AKGDWN (from UniProt P30403 408-475) (ligand)”, 0.138 µM.

The target of another assay is integrin αvβ3 (on rat osteoclast precursors) (rat). The experiment in a line: cell-based or functional assay.
“HSA-RD (human serum albumin-RD fusion protein) (from UniProt P30403 408-475)” showed an Osteoclastogenesis IC50 of 0.00668 µM.
“PRGEMP (from UniProt P30403 408-475) (ligand)”: the Osteoclastogenesis IC50 was 68.2 µM.
The substance “AKGDWN (from UniProt P30403 408-475) (ligand)” registered an Osteoclastogenesis IC50 of 78.4 µM.

A further assay has as its target integrin αIIbβ3 (on CHO-αIIbβ3 cells) (UniProt P08514). Put plainly: cell adhesion inhibition: CHO-αIIbβ3 cells on coated fibrinogen.
Take “AKGDWN (from UniProt P30403 408-475) (ligand; other documents disagree on this pair)”: the IC50 amounted to 0.069 µM.
Still for that read-out and setting: for “PRPDDL (from UniProt P30403 408-475) (ligand; other documents disagree on this pair)” the value was 13.6 µM.
The same measure, in the same setting: for “HSA-RD (human serum albumin-RD fusion protein) (from UniProt P30403 408-475) (other; other documents disagree on this pair)” the value was 2.75 µM.
